Results reported in the supplement of paper PMC9112550, “Optimization of the antimicrobial peptide Bac7 by deep mutational scanning” (BMC Biology, 2022).

test system: Escherichia coli TOP10; experiment: shrunken log2 fold change of peptide-encoding DNA abundance (4.5 h post-induction vs induction); higher = less antimicrobial activity (less host growth inhibition); settings: time post-induction: 4.5 h; library: site-saturation at positions 5, 18, 19, 20
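Note: peptides expressed intracellularly from a pBAD plasmid library in pooled LB shake-flask culture, induced with 0.3% L-arabinose, DNA abundance read by NGS, three biological replicates, DESeq2 with apeglm shrinkage.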

Point of comparison: RRIRARPPRLPRPRPRPSLSPRP, “shrunken log2 fold change” value -0.224. Against it:
- RRIRIRPPRLPRPRPRPMPDPRP — higher, 0.0702
- RRIRHRPPRLPRPRPRPTDCPRP — higher, 0.038
- RRIRSRPPRLPRPRPRPHSYPRP — within 0.2 log units, -0.171
- RRIRERPPRLPRPRPRPYMRPRP — within 0.2 log units, -0.188
- RRIRQRPPRLPRPRPRPQVMPRP — higher, 0.095
- RRIRRRPPRLPRPRPRPRLHPRP — higher, 0.435
- RRIRRRPPRLPRPRPRPGLRPRP — higher, 0.338
- RRIRFRPPRLPRPRPRPHQTPRP — higher, 0.0857
- RRIRMRPPRLPRPRPRPRHIPRP — higher, 0.0163
- RRIRVRPPRLPRPRPRPSMLPRP — within 0.2 log units, -0.395
- RRIRERPPRLPRPRPRPDLRPRP — within 0.2 log units, -0.076
- RRIRNRPPRLPRPRPRPHKWPRP — within 0.2 log units, -0.285
- RRIRRRPPRLPRPRPRPRDYPRP — within 0.2 log units, -0.116
- RRIRDRPPRLPRPRPRPHVIPRP — within 0.2 log units, -0.0856
- RRIRKRPPRLPRPRPRPGMPPRP — higher, 0.625
- RRIRFRPPRLPRPRPRPYKTPRP — within 0.2 log units, -0.166
- RRIRPRPPRLPRPRPRPGCAPRP — higher, 1.55
- RRIRWRPPRLPRPRPRPWSWPRP — higher, 1.16
- RRIRARPPRLPRPRPRPFDDPRP — higher, -0.0122
- RRIRWRPPRLPRPRPRPQFHPRP — within 0.2 log units, -0.275
- RRIRDRPPRLPRPRPRPQRQPRP — higher, 0.0345
- RRIRSRPPRLPRPRPRPYGHPRP — higher, -0.00193
- RRIRPRPPRLPRPRPRPLWRPRP — higher, 0.446
- RRIRVRPPRLPRPRPRPSNNPRP — lower, -0.662
- RRIRNRPPRLPRPRPRPILDPRP — within 0.2 log units, -0.0452
- RRIRNRPPRLPRPRPRPVERPRP — higher, 0.265
- RRIRIRPPRLPRPRPRPQCGPRP — higher, 0.0719
- RRIRERPPRLPRPRPRPAVRPRP — higher, 0.00239
- RRIRTRPPRLPRPRPRPCCMPRP — within 0.2 log units, -0.197
- RRIRVRPPRLPRPRPRPYMHPRP — within 0.2 log units, -0.3
- RRIRPRPPRLPRPRPRPMGHPRP — within 0.2 log units, -0.145
- RRIRARPPRLPRPRPRPMKKPRP — higher, 0.143
- RRIRQRPPRLPRPRPRPFKCPRP — higher, 0.00905
- RRIRERPPRLPRPRPRPDNAPRP — within 0.2 log units, -0.245
- RRIRSRPPRLPRPRPRPDNPPRP — within 0.2 log units, -0.0934
- RRIRKRPPRLPRPRPRPGKNPRP — within 0.2 log units, -0.181
- RRIRHRPPRLPRPRPRPMYIPRP — within 0.2 log units, -0.0294
- RRIRFRPPRLPRPRPRPTCGPRP — higher, 0.00559
- RRIRNRPPRLPRPRPRPKHYPRP — within 0.2 log units, -0.399
- RRIRFRPPRLPRPRPRPMMHPRP — within 0.2 log units, -0.181
- RRIRNRPPRLPRPRPRPRKWPRP — higher, 0.416
- RRIRMRPPRLPRPRPRPAMRPRP — higher, 1.14
- RRIRDRPPRLPRPRPRPFYFPRP — within 0.2 log units, -0.262
- RRIRARPPRLPRPRPRPFYRPRP — within 0.2 log units, -0.178
- RRIRGRPPRLPRPRPRPRQFPRP — higher, 0.354
- RRIRARPPRLPRPRPRPQMQPRP — higher, 0.508
- RRIRLRPPRLPRPRPRPRNNPRP — higher, 0.019
- RRIRQRPPRLPRPRPRPCKMPRP — higher, 0.0276
- RRIRNRPPRLPRPRPRPCGFPRP — higher, -0.0155
- RRIRIRPPRLPRPRPRPCPFPRP — lower, -1.38
- RRIRNRPPRLPRPRPRPNQTPRP — within 0.2 log units, -0.0303
- RRIRMRPPRLPRPRPRPLLRPRP — higher, 0.0923
- RRIRLRPPRLPRPRPRPILHPRP — within 0.2 log units, -0.231
- RRIRLRPPRLPRPRPRPPHQPRP — higher, 0.168
- RRIRHRPPRLPRPRPRPPEVPRP — higher, 0.0634
- RRIRPRPPRLPRPRPRPIEEPRP — within 0.2 log units, -0.0376
- RRIRERPPRLPRPRPRPKKSPRP — within 0.2 log units, -0.182
- RRIRCRPPRLPRPRPRPWGDPRP — within 0.2 log units, -0.142
- RRIRSRPPRLPRPRPRPFHCPRP — within 0.2 log units, -0.0582
- RRIRLRPPRLPRPRPRPFVQPRP — within 0.2 log units, -0.284
- RRIRERPPRLPRPRPRPWTRPRP — within 0.2 log units, -0.0974
- RRIRQRPPRLPRPRPRPWMEPRP — higher, -3.98e-05
- RRIRCRPPRLPRPRPRPAGSPRP — higher, 0.432
- RRIRARPPRLPRPRPRPYVVPRP — lower, -0.623
- RRIRKRPPRLPRPRPRPGVCPRP — higher, 0.87
- RRIRVRPPRLPRPRPRPDWTPRP — higher, 0.00219
- RRIRARPPRLPRPRPRPPLYPRP — higher, 0.606
- RRIRGRPPRLPRPRPRPIGEPRP — higher, 0.187
- RRIRMRPPRLPRPRPRPTTSPRP — higher, 0.499
- RRIRVRPPRLPRPRPRPFSPPRP — within 0.2 log units, -0.363
- RRIRNRPPRLPRPRPRPEYCPRP — higher, 0.00705
- RRIRQRPPRLPRPRPRPGGNPRP — within 0.2 log units, -0.0842
- RRIRTRPPRLPRPRPRPQQRPRP — within 0.2 log units, -0.0699
- RRIRPRPPRLPRPRPRPATLPRP — higher, 0.223
- RRIRGRPPRLPRPRPRPGQSPRP — higher, -0.00151
- RRIRKRPPRLPRPRPRPCTRPRP — within 0.2 log units, -0.103
- RRIRLRPPRLPRPRPRPDGIPRP — within 0.2 log units, -0.0391
- RRIRNRPPRLPRPRPRPPEKPRP — higher, 0.0323
- RRIRIRPPRLPRPRPRPFAYPRP — within 0.2 log units, -0.396
- RRIRLRPPRLPRPRPRPVMGPRP — higher, 0.256
- RRIRLRPPRLPRPRPRPITEPRP — higher, 0.0241
- RRIRGRPPRLPRPRPRPDNYPRP — higher, 0.0266
- RRIRGRPPRLPRPRPRPSKGPRP — within 0.2 log units, -0.403
- RRIRSRPPRLPRPRPRPKSHPRP — within 0.2 log units, -0.158
- RRIRSRPPRLPRPRPRPIVGPRP — higher, 0.0247
- RRIRPRPPRLPRPRPRPWEYPRP — within 0.2 log units, -0.05
- RRIRTRPPRLPRPRPRPFWYPRP — within 0.2 log units, -0.374
- RRIRHRPPRLPRPRPRPIWTPRP — within 0.2 log units, -0.311
- RRIRNRPPRLPRPRPRPAPMPRP — higher, 0.237
- RRIRDRPPRLPRPRPRPKMGPRP — within 0.2 log units, -0.0622
- RRIRLRPPRLPRPRPRPSCSPRP — lower, -0.527
- RRIRHRPPRLPRPRPRPFTWPRP — within 0.2 log units, -0.408
- RRIRWRPPRLPRPRPRPQAMPRP — higher, 0.179
- RRIRSRPPRLPRPRPRPATYPRP — lower, -0.429
- RRIRNRPPRLPRPRPRPKHLPRP — within 0.2 log units, -0.403
- RRIRCRPPRLPRPRPRPRPFPRP — higher, 0.176
- RRIRQRPPRLPRPRPRPMQSPRP — higher, 0.108
- RRIRYRPPRLPRPRPRPWIIPRP — within 0.2 log units, -0.384
- RRIRHRPPRLPRPRPRPYIKPRP — within 0.2 log units, -0.287
- RRIRLRPPRLPRPRPRPYKMPRP — lower, -0.851
- RRIRIRPPRLPRPRPRPEENPRP — within 0.2 log units, -0.306
- RRIRMRPPRLPRPRPRPDHVPRP — higher, -0.0107
- RRIRQRPPRLPRPRPRPNFIPRP — within 0.2 log units, -0.402
- RRIRYRPPRLPRPRPRPASVPRP — within 0.2 log units, -0.256
- RRIRCRPPRLPRPRPRPFGIPRP — within 0.2 log units, -0.129
- RRIRCRPPRLPRPRPRPLDPPRP — within 0.2 log units, -0.122
- RRIRPRPPRLPRPRPRPIYIPRP — within 0.2 log units, -0.36
- RRIRNRPPRLPRPRPRPCSKPRP — within 0.2 log units, -0.0508
- RRIRSRPPRLPRPRPRPGNQPRP — within 0.2 log units, -0.0918
- RRIRGRPPRLPRPRPRPMSGPRP — higher, 0.0585
- RRIRNRPPRLPRPRPRPKFRPRP — higher, 0.00344
- RRIRTRPPRLPRPRPRPVIEPRP — within 0.2 log units, -0.408
- RRIRQRPPRLPRPRPRPCICPRP — lower, -0.542
- RRIRLRPPRLPRPRPRPMGYPRP — within 0.2 log units, -0.126
- RRIRRRPPRLPRPRPRPRDEPRP — higher, 0.48
- RRIRIRPPRLPRPRPRPGCMPRP — within 0.2 log units, -0.134
- RRIRHRPPRLPRPRPRPMNDPRP — within 0.2 log units, -0.108
- RRIRIRPPRLPRPRPRPWNMPRP — higher, 0.0777
- RRIRFRPPRLPRPRPRPITCPRP — lower, -1.15
- RRIRWRPPRLPRPRPRPHEVPRP — higher, 0.169
- RRIRWRPPRLPRPRPRPKFKPRP — higher, -0.00802
- RRIRFRPPRLPRPRPRPPLKPRP — higher, 0.266
- RRIRIRPPRLPRPRPRPVCRPRP — higher, 1.56
- RRIRHRPPRLPRPRPRPAAYPRP — within 0.2 log units, -0.206
- RRIRPRPPRLPRPRPRPNSRPRP — within 0.2 log units, -0.1
- RRIRYRPPRLPRPRPRPTVFPRP — within 0.2 log units, -0.317
- RRIRHRPPRLPRPRPRPCDQPRP — higher, -0.000946
- RRIRCRPPRLPRPRPRPYPSPRP — higher, -0.0149
- RRIRPRPPRLPRPRPRPCRMPRP — higher, -0.0012
- RRIRARPPRLPRPRPRPYNYPRP — higher, 1.34
- RRIRGRPPRLPRPRPRPSFAPRP — higher, 0.723
- RRIRARPPRLPRPRPRPCRRPRP — within 0.2 log units, -0.085
- RRIRIRPPRLPRPRPRPDEWPRP — within 0.2 log units, -0.0975
- RRIRFRPPRLPRPRPRPQTQPRP — higher, 0.0508
- RRIRARPPRLPRPRPRPEHVPRP — higher, 0.269
- RRIRLRPPRLPRPRPRPDYKPRP — within 0.2 log units, -0.354
- RRIRFRPPRLPRPRPRPITKPRP — within 0.2 log units, -0.0304
- RRIRARPPRLPRPRPRPAFQPRP — higher, 0.174
- RRIRARPPRLPRPRPRPCIFPRP — higher, 0.131
- RRIRCRPPRLPRPRPRPLVRPRP — higher, 0.0749
- RRIRFRPPRLPRPRPRPSVFPRP — within 0.2 log units, -0.165
- RRIRWRPPRLPRPRPRPITWPRP — higher, 0.0636
- RRIRMRPPRLPRPRPRPRRHPRP — higher, 1.02
- RRIRHRPPRLPRPRPRPGKPPRP — higher, -0.00366
- RRIRVRPPRLPRPRPRPMVIPRP — higher, 0.0224
- RRIRSRPPRLPRPRPRPVATPRP — higher, 0.707
- RRIRARPPRLPRPRPRPQEAPRP — higher, 0.197
- RRIRQRPPRLPRPRPRPELVPRP — within 0.2 log units, -0.142
- RRIRQRPPRLPRPRPRPTPVPRP — higher, 0.286
